# Where two headings read alike, the source gives them in different places.
# Key:
# [1] = tested on: PC-3 human tumor xenografts; test: in vivo
# Description: In vivo pharmacokinetic studies in human tumor bearing SCID mice. […] The xenograft models were produced by bilateral flank inoculation of 5×10^6 cells (PC-3 or MDA-MB-231 cells) per site. Four to six weeks post inoculation, palpable tumors were observed. At this point, the mice were injected with 4 μCi of the complex in […] of isotonic saline via the tail vein. The mice were euthanized and tissues and organs were excised from the animals at selected times post-injection (p.i.), including 15 minutes, 30 minutes, 1 hour, 4 hours, 24 hours, 48 hours, and 72 hours p.i. Subsequently, the tissues and organs were weighed and counted in a NaI well counter and the percent injected dose (% ID) and % ID/g of each organ or tissue calculated.
# The mice were injected with 4 μCi of the complex in 100 μL of isotonic saline via the tail vein. The mice were euthanized by cervical dislocation. Tissues and organs were excised from the animals following at 1 hour, 4 hour, and 24 hours post-injection (p.i.). Subsequently, the tissues and organs were weighed and counted in a NaI well counter and the percent injected dose (% ID) and % ID/g of each organ or tissue calculated.
# [2] = tested on: MDA-MB-231 human tumor xenografts;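 also: SCID mice bearing bilateral flank PC-3 or MDA-MB-231 xenografts, tail-vein dosing, organs sampled from 15 min to 72 h post-injection, radioactivity measured with NaI well counter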
# [3] = Biodistribution of radiometal-DOTA-BBN conjugates in CF1 normal mice; conditions: 1 hour post-injection
# [4] = biological target: T1, GRP receptors on Swiss 3T3 cells (Mus musculus, UniProt P21729); test: Competitive cell binding vs 125I-Tyr4-BBN, Swiss 3T3 cells
# T1 construct: endogenous in cells; host or cells: Swiss 3T3 mouse fibroblasts (whole cells)
# T1 sequence (P21729 whole entry): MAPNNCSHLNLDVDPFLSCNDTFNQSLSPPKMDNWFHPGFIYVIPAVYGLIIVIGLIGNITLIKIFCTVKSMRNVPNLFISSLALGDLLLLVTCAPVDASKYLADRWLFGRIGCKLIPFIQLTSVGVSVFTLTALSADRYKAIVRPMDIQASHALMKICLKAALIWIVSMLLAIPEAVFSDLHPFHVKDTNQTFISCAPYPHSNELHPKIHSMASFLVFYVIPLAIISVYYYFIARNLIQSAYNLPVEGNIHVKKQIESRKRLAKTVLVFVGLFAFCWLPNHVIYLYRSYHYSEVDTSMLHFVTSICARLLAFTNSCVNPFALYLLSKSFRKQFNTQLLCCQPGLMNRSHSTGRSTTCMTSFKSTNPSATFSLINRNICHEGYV
# Description: The binding affinities of the synthetic BBN derivatives were assessed for GRP receptors on Swiss 3T3 cells and, in some cases, on a variety of human cancer cell lines, that express GRP receptors. […] The cell binding assay methods used to measure the IC50's is standard and used techniques previously reported [Jensen et al., 1993; Cai et al., 1994; Cai et al., 1992]. The methods used for determining IC50's for all GRP receptor binding compounds on all cell lines was similar. The specific method used to measure IC50's on Swiss 3T3 cells is briefly described as follows:
# (§1) Swiss 3T3 mouse fibroblasts are grown to confluence in 48 well microtiter plates. […] The growth media was removed, the cells were washed twice with incubation media, and incubation media was returned to the cells. ^125I-Tyr4-BBN (0.01 uCi) was added to each well in the presence of increasing concentrations of the appropriate competitive peptide. Typical concentrations of displacing peptide ranged from 10-12 to 10-5 moles of displacing ligand per well. The cells were incubated at 37° C. for forty minutes in a 95% […]/5% CO2 humidified environment. At forty minutes post initiation of the incubation, the medium was discarded, and the cells were washed twice with cold incubation media. The cells were harvested from the wells following incubation in a trypsin/EDTA solution for five minutes at 37° C. Subsequently, the radioactivity, per well, was determined and the maximum % total uptake of the radiolabeled peptide was determined and normalized to 100%.
# The binding affinities of the synthetic BBN derivatives were assessed for GRP receptors on Swiss 3T3 cells, PC-3 cells and CF PAC-1 cells. The IC50's of each of derivative were determined relative to (i.e., in competition with) ^125I-Tyr^4-BBN. The cell binding assay methods used to measure the IC50's is standard and was used by techniques previously reported [Jensen et al., 1993; Cai et al., 1992; Cai et al., 1994]. The methods used for determining IC50's with all BBN analogue binding to GRP receptors present on all three cell lines were similar. The specific method used to measure IC50's on Swiss 3T3 cells, is briefly described as follows:
# as §1, with “microliter” for “microtiter”, “^125I-Tyr^4-BBN” for “^125I-Tyr4-BBN”, “μCi)” for “uCi)”, “10^−12” for “10-12”, “10^−5” for “10-5”, “100%. A similar procedure was used in performing cell binding assays with both the PC-3 and CFa-PAC-1 human cancer cell lines.” for “100%.”
# [5] = biological target: T2, GRP receptors on CF PAC-1 cells (Homo sapiens, UniProt P30550); test: Competitive cell binding vs 125I-Tyr4-BBN, CF PAC-1 cells
# T2 construct: two different human cancer cell lines that express GRP receptors (i.e., CF-PAC1 and PC-3 cell lines); endogenous in cells; host or cells: CFPAC-1 human pancreatic cancer cells (whole cells)
# T2 sequence (P30550 whole entry): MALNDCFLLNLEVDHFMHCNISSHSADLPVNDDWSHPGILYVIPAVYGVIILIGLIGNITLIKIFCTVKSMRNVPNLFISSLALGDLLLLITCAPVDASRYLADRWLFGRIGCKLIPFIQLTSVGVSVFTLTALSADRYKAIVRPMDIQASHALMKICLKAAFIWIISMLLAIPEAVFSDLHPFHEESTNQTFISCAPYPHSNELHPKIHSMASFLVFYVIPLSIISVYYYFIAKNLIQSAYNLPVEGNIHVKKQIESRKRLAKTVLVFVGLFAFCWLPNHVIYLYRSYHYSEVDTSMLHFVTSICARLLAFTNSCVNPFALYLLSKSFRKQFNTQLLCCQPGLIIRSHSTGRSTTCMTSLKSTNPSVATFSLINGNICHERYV
# [6] = biological target: T3, GRP receptors on PC-3 cells (Homo sapiens, UniProt P30550); test: Competitive cell binding vs 125I-Tyr4-BBN, PC-3 cells
# T3 construct: two different human cancer cell lines that express GRP receptors (i.e., CF-PAC1 and PC-3 cell lines); host or cells: PC-3 human prostate cancer cells (whole cells)
# T3 sequence (P30550 whole entry): as above
# PC-3 cells = test: Internalization and efflux of In-DOTA-8-Aoc-BBN in PC-3 cells; format: cell-based, human
# Description: Internalization and efflux studies. […] The percent of cell-associated activity as a function of time (in the incubating medium at 37° C.) was determined. The percentage radioactivity trapped in the cells was determined after removing activity bound to the surface of the cells by washing with a pH-2.5 (0.2M acetic acid and 0.5M NaCl) buffer 1, 2, 3 and 4 hours afterwards.
smiles,measurement,setting,value
CSCC[C@H](NC(=O)[C@H](CC(C)C)NC(=O)[C@H](Cc1cnc[nH]1)NC(=O)CNC(=O)[C@@H](NC(=O)[C@H](C)NC(=O)[C@H](Cc1c[nH]c2ccccc12)NC(=O)[C@H](CCC(N)=O)NC(=O)CCCCCCCNC(=O)CN1CCN(CC(=O)O)CCN(CC(=O)O)CCN(CC(=O)O)CC1)C(C)C)C(N)=O [111In-DOTA-8-Aoc-BBN[7-14]NH2] [metal not drawn],"Avg % ID, Blood",[1]; 1 hr,0.92±0.58 % ID
same,"Avg % ID, Carcass",[1]; 1 hr,13.55 ± 6.05 % ID
same,"Avg % ID, Liver",[1]; 1 hr,1.41 ± 0.32 % ID
same,"Avg % ID, Lung",[1]; 1 hr,0.09 ± 0.07 % ID
same,"Avg % ID, Pancreas",[1]; 1 hr,3.49 ± 2.15 % ID
same,"Avg % ID, Spleen",[1]; 1 hr,0.09 ± 0.07 % ID
same,"Avg % ID/gm, Liver",[1]; 1 hr,1.34 ± 0.25 % ID/gm
same,"Avg % ID/gm, Lung",[1]; 1 hr,0.50 ± 0.39 % ID/gm
same,"Avg % ID/gm, Pancreas",[1]; 1 hr,18.80 ± 10.97 % ID/gm
same,"Avg % ID/gm, Spleen",[1]; 1 hr,1.39 ± 1.17 % ID/gm
same,"Avg % ID, Carcass",[1]; 4 hrs,2.92 ± 0.64 % ID
same,"Avg % ID, L. Intestine",[1]; 4 hrs,6.04 ± 2.05 % ID
same,"Avg % ID, Liver",[1]; 4 hrs,1.57 ± 0.72 % ID
same,"Avg % ID, Muscle",[1]; 4 hrs,0.0 ± 0.00 % ID
same,"Avg % ID, Tumor",[1]; 4 hrs,0.18 ± 0.17 % ID
same,"Avg % ID/gm, Blood",[1]; 4 hrs,0.27 ± 0.02 % ID/gm
same,"Avg % ID/gm, Liver",[1]; 4 hrs,1.44 ± 0.57 % ID/gm
same,"Avg % ID/gm, Spleen",[1]; 4 hrs,1.59 ± 0.27 % ID/gm
same,"Avg % ID/gm, Stomach",[1]; 4 hrs,0.96 ± 0.57 % ID/gm
same,excretion through the renal pathway,[1]; 24 hours p.i.,87 % ID
same,"Avg % ID, Carcass",[1]; 24 hrs,1.69 ± 0.56 % ID
same,"Avg % ID, Heart",[1]; 24 hrs,0.00 ± 0.01 % ID
same,"Avg % ID, Pancreas",[1]; 24 hrs,1.19 ± 0.49 % ID
same,"Avg % ID, Stomach",[1]; 24 hrs,0.09 ± 0.02 % ID
same,"Avg % ID/gm, Blood",[1]; 24 hrs,0.10 ± 0.03 % ID/gm
same,"Avg % ID/gm, Kidney",[1]; 24 hrs,1.18 ± 0.14 % ID/gm
same,"Avg % ID/gm, Lung",[1]; 24 hrs,0.09 ± 0.07 % ID/gm
same,"Avg % ID/gm, Pancreas",[1]; 24 hrs,6.78 ± 1.15 % ID/gm
same,"Avg % ID/gm, S. Intestine",[1]; 24 hrs,0.89 ± 0.16 % ID/gm
same,"Avg % ID/gm, Spleen",[1]; 24 hrs,0.46 ± 0.20 % ID/gm
same,"Avg % ID/gm, Stomach",[1]; 24 hrs,0.30 ± 0.05 % ID/gm
same,"Avg % ID, Carcass",[1]; 48 hrs,0.57 ± 0.02 % ID
same,"Avg % ID, Muscle",[1]; 48 hrs,0.00 ± 0.00 % ID
same,"Avg % ID/gm, Spleen",[1]; 48 hrs,0.22 ± 0.22 % ID/gm
same,"Avg % ID, Heart",[1]; 72 hrs,0.00 ± 0.00 % ID
same,"Avg % ID, Lung",[1]; 72 hrs,0.00 ± 0.00 % ID
same,"Avg % ID, Muscle",[1]; 72 hrs,0.00 ± 0.00 % ID
same,"Avg % ID/gm, Blood",[1]; 72 hrs,0.01 ± 0.02 % ID/gm
same,"Avg % ID/gm, Heart",[1]; 72 hrs,0.01 ± 0.01 % ID/gm
same,"Avg % ID/gm, Kidney",[1]; 72 hrs,0.20 ± 0.02 % ID/gm
same,"Avg % ID/gm, Muscle",[1]; 72 hrs,0.01 ± 0.02 % ID/gm
same,initial tumor uptake retained,[2]; 4 hours,46%
same,initial tumor uptake retained,[2]; 24 hours,28%
same,"Avg % ID, Blood",[3],0.66 ± 0.13 % ID
same,"Avg % ID, Carcass",[3],5.01 ± 0.47 % ID
same,"Avg % ID, Liver",[3],1.02 ± 0.08 % ID
same,"Avg % ID, Lung",[3],0.07 ± 0.02 % ID
same,"Avg % ID/gm, Heart",[3],0.05 ± 0.02 % ID/gm
same,"Avg % ID/gm, Kidney",[3],2.37 ± 0.31 % ID/gm
same,"Avg % ID/gm, L. Intestine",[3],2.66 ± 1.07 % ID/gm
same,"Avg % ID/gm, Lung",[3],0.31 ± 0.07 % ID/gm
same,"Avg % ID/gm, S. Intestine",[3],4.43 ± 0.90 % ID/gm
CSCC[C@H](NC(=O)[C@H](CC(C)C)NC(=O)[C@H](Cc1c[nH]cn1)NC(=O)CNC(=O)[C@@H](NC(=O)[C@H](C)NC(=O)[C@H](Cc1c[nH]c2ccccc12)NC(=O)[C@H](CCC(N)=O)NC(=O)CCNC(=O)COC1CSCCCSCCCSCCCSC1)C(C)C)C(N)=O [BBN-46],IC50,[4],2.34 ± 0.53 nM
CSCC[C@H](NC(=O)[C@H](CC(C)C)NC(=O)[C@H](Cc1c[nH]cn1)NC(=O)CNC(=O)[C@@H](NC(=O)[C@H](C)NC(=O)[C@H](Cc1c[nH]c2ccccc12)NC(=O)[C@H](CCC(N)=O)NC(=O)CCCCCCCNC(=O)COC1CSCCCSCCCSCCCSC1)C(C)C)C(N)=O [BBN-47],IC50,[4],4.19 ± 0.91 nM
CSCC[C@H](NC(=O)[C@H](CC(C)C)NC(=O)[C@H](Cc1c[nH]cn1)NC(=O)CNC(=O)[C@@H](NC(=O)[C@H](C)NC(=O)[C@H](Cc1c[nH]c2ccccc12)NC(=O)[C@H](CCC(N)=O)NC(=O)CNC(=O)CNC(=O)COC1CSCCCSCCCSCCCSC1)C(C)C)C(N)=O [BBN-98],IC50,[5],1 to 6 nM
same,IC50,"[6]; PC-3 cells, read-out: IC50",1 to 6 nM
same,IC50,[4],1 to 6 nM
CSCC[C@H](NC(=O)[C@H](CC(C)C)NC(=O)[C@H](Cc1c[nH]cn1)NC(=O)CNC(=O)[C@@H](NC(=O)[C@H](C)NC(=O)[C@H](Cc1c[nH]c2ccccc12)NC(=O)[C@H](CCC(N)=O)NC(=O)CNC(=O)COC1CSCCCSCCCSCCCSC1)C(C)C)C(N)=O [BBN-99],IC50,[5],1 to 6 nM
same,IC50,"[6]; PC-3 cells, read-out: IC50",1 to 6 nM
same,IC50,[4],1 to 6 nM
CSCC[C@H](NC(=O)[C@H](CC(C)C)NC(=O)[C@H](Cc1c[nH]cn1)NC(=O)CNC(=O)[C@@H](NC(=O)[C@H](C)NC(=O)[C@H](Cc1c[nH]c2ccccc12)NC(=O)[C@H](CCC(N)=O)NC(=O)CCCCCCCNC(=O)CN1CCN(CC(=O)O)CCN(CC(=O)O)CCN(CC(=O)O)CC1)C(C)C)C(N)=O [In-DOTA-8-Aoc-BBN[7-14]NH2],internalization,PC-3 cells,rapid receptor mediated endocytosis
same,retention within cells,PC-3 cells,remained retained within the cells for a prolonged time period
CSCC[C@H](NC(=O)[C@H](CC(C)C)NC(=O)[C@H](Cc1c[nH]cn1)NC(=O)CNC(=O)[C@@H](NC(=O)[C@H](C)NC(=O)[C@H](Cc1c[nH]c2ccccc12)NC(=O)[C@H](CCC(N)=O)NC(=O)CCCCNC(=O)COC1CSCCCSCCCSCCCSC1)C(C)C)C(N)=O [RhCl2BBN-37],IC50,[5],~7 nM
same,IC50,"[6]; PC-3 cells, read-out: IC50",~7 nM
same,IC50,"[6]; Prostate CA, PC-3, read-out: IC50 (Mean Value)",7 nM
same,IC50,[4],4.76 ± 0.79 nM
CSCC[C@H](NC(=O)[C@H](CC(C)C)NC(=O)[C@H](Cc1c[nH]cn1)NC(=O)CNC(=O)[C@@H](NC(=O)[C@H](C)NC(=O)[C@H](Cc1c[nH]c2ccccc12)NC(=O)[C@H](CCC(N)=O)NC(=O)CCNC(=O)COC1CSCCCSCCCSCCCSC1)C(C)C)C(N)=O [RhCl2BBN-46],IC50,[4],3.38 ± 0.69 nM
